Test results taken from US8022178B2, “Modified self-assembling peptides” (Massachusetts Institute of Technology, priority 2006, dated 2011).

Key:
[1] = Isoelectric plot and rheological data when 0.1 N NaOH is added (pH of gel formation); format: physicochemical; settings: 1% solution, 0.1 N NaOH solution added
Excerpt: At the point of pH 3.6, the viscous solution become gel and has a higher G′ (stiffness), G″ (viscosity) value. When the pH is increased, the gel breaks into small pieces and it becomes a solution with precipitated peptides. At lower pH, the peptide forms fibers and the fibers make the solution viscous. When the pH becomes higher, and approaches the pI value, the peptide fibers lose their charge and aggregate to form gel. The same gel formation happens when the peptide charge is screened by salts in a salt-containing solution (e.g., a solution containing a gellation agent or an iso-osmotic solute). Once the gel is formed, the fiber structure is broken into pieces to form a precipitate particle.
(§1) A comparison of the pH dependent property of 1% Ac(RADA)4GGFHRRIKA CONH2 (SEQ ID NO. 6) solution (Code: FHR), self assembling peptide sequence was compared with the heparin-binding motif. FIG. 12 depicts the isoelectric plot and corresponding rheological data when 0.1 N NaOH solution is added to FHR solution to adjust pH. The net charge of the peptide molecule is kept ≧2 when pH<10. Until at point of pH 5.7, the solution keeps viscous state. This movement of pH point where the peptide solution become gel is controlled by the charge induced by the additional motif to the self-assembling peptide. The induced charge prevents the peptide to aggregate to form the gel. Thus, the cell and the peptide solution can be mixed near neutral pH. After complete mixing, the gel formation can be made by adding salt containing solution (e.g., a solution containing a gellation agent or an iso-osmotic solute).
FIG. 18 depicts the isoelectric plot and Rheological data of PFS 1% solution when 0.1 N NaOH solution is added. 1% Ac(RADA)4GGSKPPGTSS-CONH2 solution (Code: SKP, peptide sequence: SEQ ID NO. 7) is a hydrogel composed of peptides with a self-assembling sequence and positively-charged functional motif. Although the pI value of the peptide is 9.74 and it keeps positive charge at near pH 7 range, the gel is formed at the point of pH 4.5. […]

[2] = pI and charge of the self-assembling peptide; format: physicochemical
Description: as §1
FIG. 18 depicts the isoelectric plot and Rheological data of PFS 1% solution when 0.1 N NaOH solution is added. 1% Ac(RADA)4GGSKPPGTSS-CONH2 solution (Code: SKP, peptide sequence: SEQ ID NO. 7) is a hydrogel composed of peptides with a self-assembling sequence and positively-charged functional motif. Although the pI value of the peptide is 9.74 and it keeps positive charge at near pH 7 range, the gel is formed at the point of pH 4.5. This is because the charge of the molecule around pH 7 range is +1 and smaller than the charge of Ac(RADA)4GGFHRRIKA CONH2 (FHR) (bigger than 3). The charge of the whole peptide should be larger than 2 when the cell is mixed. This pH should be somewhere in 6-8 in order to minimize the damage to the cells. As this sequence is heparin-binding motif, the fiber can attach to the heparin molecule which is abundant at cell surface. This heparin-binding motif provides a specific anchor to the cell. As described in Example 1, this binding synergistically works with the other binding motif (e.g., RGD) to induce biological stimuli for cell proliferation and differentiation. This effect is not limited to the sequences previously describe, but the other motifs, including -XBBXBX- and -XBBBXXBX- sequences. […]

bFGF = bFGF (Homo sapiens, UniProt P09038); assay: bFGF retention in peptide matrix (ELISA); settings: bFGF 175 ng/insert loaded after gelation; during PBS washing and culturing; FIG. 19
Chain of bFGF (P09038 143-288, species assumed): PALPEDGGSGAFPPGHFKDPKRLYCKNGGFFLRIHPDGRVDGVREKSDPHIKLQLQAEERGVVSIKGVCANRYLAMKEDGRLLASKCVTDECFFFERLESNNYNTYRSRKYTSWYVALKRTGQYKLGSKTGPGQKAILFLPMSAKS
Description: The effect of protein retention and delivery using the self-assembling peptide were studied (Table 11). bFGF was used as a model protein. The retention of bFGF in different peptide matrix in different charge condition was measured by ELISA after washing by PBS. After washing out unbound bFGF, the effect of protein retention to self-assembling peptide matrix were evaluated the using cell culturing of HUVEC (human umbilical vein endothelial cells).
The peptide solutions provided in Table 12 were loaded in the culture inserts (10 mm diameter, Millicell-CM, Millipore) and gels were formed using PBS. After gelation, bFGF solution in PBS was added inside and outside and plated for overnight. bFGF was loaded at 175 ng/insert. After loading bFGF, the PBS inside and outside the inserts were exchanged three times (2 hours, 9 hours and 12 hours) to remove unbound bFGF (Washing). After the washing, the PBS was exchanged to the cell culture medium (EGM-2-MV, Camblex) without attached growth factor (bFGF, VEGF and EGF) and placed more than a day (such that the fluid contained in the gel is exchanged from PBS to cell culture medium), then HUVEC (human umbilical vein endothelial cells) were plated at 7.5×10^4 cells on the inserts and cultured for three days.
Cell culturing using cell culture medium (EGM-2-MV) was used without attached growth factor on peptide matrix as negative control. Cell culturing using cell culture medium (EGM-2-MV) was used with attached growth factor on peptide matrix without loading growth factor as positive control. The bFGF concentration in washing buffer (PBS) and cell culture medium (EGM-2-MV) was measured using ELISA. The washing buffer and cell culture medium were exchanged at each measurement period (2 hours, 9 hours and 12 hours for washing, and at the cell seeding (D0), Day 1 (D 1), Day 2 (D2) and Day 3 (D3)). Growth factor retention rate was calculated by accumulating the amount of measured bFGF.

[3] = test system: HUVEC (human umbilical vein endothelial cells); assay: HUVEC cultured 2-dimensionally on hydrogels: cell attachment and morphology; format: cell-based; parameters: key to Capillary like morphology: weak: +; medium: ++; strong: +++; very strong: ++++; settings: HUVEC cultured on hydrogels
Description: The effect of functional modified peptide matrix to HUVEC (human umbilical vein endothelial cells) was evaluated by culturing cells 2-dimensionally on the gel.
The peptide solutions shown in Table 19 were loaded in the culture inserts (10 mm diameter, Millicell-CM, Millipore) and gels were formed using cell culture medium (EGM-2-MV, Camblex). Collagen-1 and Matrigel were used as control matrices. HUVEC (human umbilical vein endothelial cells) were plated at 8×10^4 cells on the inserts and cultured up to 7 Days.

Substance | pH at which the viscous peptide solution becomes gel [1] | charge [2] | pI [2] | charge of the molecule around pH 7 range ([2]; around pH 7) | net charge of the peptide molecule ([2]; when pH<10) | bFGF (growth factor) retention rate (bFGF) | Capillary like morphology [3] | Cell attachment [3]
Ac(RADA)4GGFHRRIKA-CONH2 (Ac-RADARADARADARADAGGFHRRIKA-NH2) [FHR = 1% solution; FHR-2P = 2% solution] | 5.7 | positively charged | 11.32, | > 3 | ≥ 2 | high in the order of KFQ-2P, FHR-2P, RAD-2P then DGR-2P | + | ++ (++: 20-50%)
Ac(RADA)4-CONH2 | 3.6 | neutral | 6.1 |  |  | high in the order of KFQ-2P, FHR-2P, RAD-2P then DGR-2P |  | + (+: Weak(<20%))
